From patent US10801027B2, “Inhibitors of SRSF1 to treat neurodegenerative disorders” (University of Sheffield, priority 2016, dated 2020)

T1: NXF1 (Mus musculus, UniProt Q99JX7)
T1 construct: endogenous in cells; host or cells: Neuro-2a (N2A)
T1 sequence (Q99JX7 1-618): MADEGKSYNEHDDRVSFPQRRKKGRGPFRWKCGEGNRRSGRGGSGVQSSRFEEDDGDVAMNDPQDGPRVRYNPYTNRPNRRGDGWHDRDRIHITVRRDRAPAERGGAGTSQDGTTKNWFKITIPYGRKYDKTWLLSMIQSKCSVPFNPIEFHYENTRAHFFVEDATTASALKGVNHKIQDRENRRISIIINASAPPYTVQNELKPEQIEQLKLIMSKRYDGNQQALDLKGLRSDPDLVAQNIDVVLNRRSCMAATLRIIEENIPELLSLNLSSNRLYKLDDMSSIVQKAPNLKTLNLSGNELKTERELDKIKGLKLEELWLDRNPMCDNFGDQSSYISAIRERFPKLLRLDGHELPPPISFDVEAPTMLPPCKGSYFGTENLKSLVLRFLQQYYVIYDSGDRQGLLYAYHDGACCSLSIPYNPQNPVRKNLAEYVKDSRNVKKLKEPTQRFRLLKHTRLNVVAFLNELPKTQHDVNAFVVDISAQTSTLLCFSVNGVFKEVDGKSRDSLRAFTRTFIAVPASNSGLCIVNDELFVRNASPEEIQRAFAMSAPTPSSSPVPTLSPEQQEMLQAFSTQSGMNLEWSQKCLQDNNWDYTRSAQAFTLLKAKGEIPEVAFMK


Key:
[1] = MND patients; cited from earlier work
[2] = tested on: poly-Gly-Pro and poly-Gly-Ala DPRs; assay: Western blot of RAN-translated DPRs in N2A cells; assay type: cell-based, mouse; conditions: G4C2×38 or C4G2×39 constructs, 72 h
Experimental: Neuro-2a (ATCC) cells were cultured in Dulbecco's Modified Eagle Medium (Sigma) supplemented with 10% fetal bovine serum [FBS] (Gibco), 5 U/ml Penstrep (Lonza) and 5 mM sodium pyruvate. Cells were maintained in a […] incubator with 5% CO2. 75,000 Neuro-2a cells were split into each well of 24-well plates and transfected for 72 h with 500 ng pcDNA6.2-GW/EmGFP-Control miR RNAi (ThermoFisher) or pcDNA6.2-GW/EmGFP-mouse SRSF1 miR1+2 RNAi and 200 ng pcDNA 3.1/RAN-G4C2×38-sense or RAN-C4G2×39-antisense using 3 μg PEI/1 μg DNA and one tenth medium volume OptiMEM (ThermoFisher).
HEK cells were transfected for 72 h with 650 ng pcDNA6.2-GW/EmGFP-Control miRNA, pCDNA6.2-GW/EmGFP-human SRSF1 miR1+2 RNAi or LV-EmGFP-human SRSF1 miR1+2 RNAi constructs and 50 ng p3×FLAG/human-SRSF1 using 3.5 μg PEI/ml media and one tenth medium volume of OptiMEM. Neuro-2a cells were split into each well of 24-well plates (75,000 cells/well) and transfected for 72 h with 350 ng pcDNA6.2-GW/EmGFP-Control miR RNAi (ThermoFisher), pcDNA6.2-GW/EmGFP-mouse SRSF1 miR1+2 RNAi, p3×FLAG, p3×FLAG/SRSF1 (11-196), p3×FLAG/SRSF1 (11-196)-m2 or p3×FLAG/SRSF1 (11-196)-m4 and 350 ng pcDNA 3.1/RAN-G4C2×38-sense or RAN-C4G2×39-antisense using 3 μg PEI/1 μg DNA and one tenth medium volume OptiMEM.
Proteins were extracted from HEK or Neuro-2a cells 72 hours after transfection. […] Protein extracts were quantified using Bradford Reagent (BioRAD), resolved by SDS-PAGE, electroblotted onto nitrocellulose membrane and probed using the relevant primary antibody. […] (kindly received from Prof Stuart Pickering Brown) primary antibodies were detected with horseradish peroxidase (HRP)-conjugated rabbit secondary antibody [1:5000 dilution] […] (kindly provided from Prof Dieter Edbauer) primary antibodies were detected using HRP-conjugated mouse secondary antibody [1:5000 dilution] […] For dot blot analysis, 50 μg total protein extracts prepared in ice-cold lysis buffer were loaded onto a nitrocellulose membrane using a microfiltration apparatus (Biorad) and analysed by western immunoblotting as previously described.

NXF1 = molecular target: T1, NXF1; assay: Anti-FLAG co-immunoprecipitation of endogenous NXF1 in N2A cells; assay type: binding; conditions: FLAG-tagged protein, 48 h
Experimental: Cells were split into 1×10 cm plates/treatment (1.5×10^6 cells/plate) and transfected with 15 μg p3×FLAG, p3×FLAG/SRSF1 (11-196), p3×FLAG/SRSF1 (11-196)-m2 or p3×FLAG/SRSF1(11-196)-m4 using 3 μg PEI/1 μg DNA and one tenth medium volume OptiMEM.
Proteins were extracted from Neuro-2a cells 48 hours after transfection. Cells were briefly washed in ice cold PBS, scraped into 500 μl ice cold lysis buffer, passed through a 21G gauge needle 10 times and left to lyse on ice for 10 minutes. Lysed cells were cleared by centrifugation at maximum speed at 4° C. for five minutes and protein extracts were quantified using Bradford Reagent. 2 mg of total protein in 1 ml lysis buffer was incubated with 30 μl anti-FLAG® M2 affinity resin slurry (Sigma A2220) (which had been blocked overnight with 1% BSA in IP lysis buffer) for 2 hours at 4° C. on a rotating wheel. […] 30 μg total protein and 15 μl captured protein complexes were resolved by SDS-PAGE, electroblotted onto nitrocellulose membrane and probed using FLAG, NXF1 clone 53H8 [1:2000] (Abcam ab50609) and […]-tubulin.

Molecule	life extension [1]	effect on RAN translation / production of sense and antisense DPRs [2]	co-immunoprecipitation of endogenous NXF1 (NXF1)
Nc1nc2ccc(OC(F)(F)F)cc2s1 [riluzole]	around 6 months	–	–
SRSF1-m2: FLAG-tagged SRSF1 11-196 double R117,118A mutant (protein, left off: small tags and cut ends, FLAG-tagged SRSF1 11-196 double R117,118A mutant) AGNNDCRIYVGNLPPDIRTKDIEDVFYKYGAIRDIDLKNRRGGPPFAFVEFEDPRDAEDAVYGRDGYDYDGYRLRVEFPRSGRGTGRGGGGGGGGGAPRGRYGPPSAASENRVVVSGLPPSGSWQDLKDHMREAGDVCYADVYRDGTGVVEFVRKEDMTYAVRKLDNTKFRSHEGETAYIRVKVDG	–	little effect	specifically immunoprecipitated
SRSF1 11-196 wild type: FLAG-tagged SRSF1 amino-acids 11-196 wild type (protein, left off: small tags and cut ends, FLAG-tagged SRSF1 amino-acids 11-196 wild type) AGNNDCRIYVGNLPPDIRTKDIEDVFYKYGAIRDIDLKNRRGGPPFAFVEFEDPRDAEDAVYGRDGYDYDGYRLRVEFPRSGRGTGRGGGGGGGGGAPRGRYGPPSRRSENRVVVSGLPPSGSWQDLKDHMREAGDVCYADVYRDGTGVVEFVRKEDMTYAVRKLDNTKFRSHEGETAYIRVKVDG	–	no	specifically immunoprecipitated
